Laboratory results as given in patent US20090041744A1 (published 2009).

What was measured:
[1] = biological target: T1, FVIIa 407C (human, UniProt P08709 61-212; P08709 213-466, N-glycosylated Asn322; engineered Cys407 is largely in mixed disulfides with glutathione, cysteine and homocysteine in the untreated preparation; whether the SPR sample was selectively reduced is not …); test: SPR (Biacore 3000), biotinylated sTF E219C on SA chip, FVIIa as analyte; KD calculated from kon and koff
T1 construct: range 1-152;range 153-406; Recombinant, expressed in BHK cells; DNA construct as described in WO 02/077218 A1; Light and heavy chain are joined by a disulfide bond; also called Factor VIIa 407C; FVII 407C
T1 sequence (light): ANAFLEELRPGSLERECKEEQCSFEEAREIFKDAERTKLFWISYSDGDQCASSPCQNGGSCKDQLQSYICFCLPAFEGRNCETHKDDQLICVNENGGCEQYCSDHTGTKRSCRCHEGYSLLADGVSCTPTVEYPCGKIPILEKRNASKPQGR
T1 sequence (heavy): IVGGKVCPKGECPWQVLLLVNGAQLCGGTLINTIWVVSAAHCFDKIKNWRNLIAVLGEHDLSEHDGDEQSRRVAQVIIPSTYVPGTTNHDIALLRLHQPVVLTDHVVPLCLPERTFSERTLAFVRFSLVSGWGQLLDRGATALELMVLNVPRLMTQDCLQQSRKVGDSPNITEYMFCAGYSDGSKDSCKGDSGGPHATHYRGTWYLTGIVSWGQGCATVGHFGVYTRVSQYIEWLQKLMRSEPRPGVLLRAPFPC
Procedure: (§1) Surface plasmon resonance (SPR) analysis of the binding of FVIIa 407C, FVIIa 407C-PEG3.4 k-FVIIa 407C, and FVIIa 407C-PEG20k-FVIIa 407C to immobilized soluble tissue factor—Binding of FVIIa 407C and PEGylated variants to immobilized soluble tissue factor was analyzed by surface plasmon resonance analysis on a Biacore 3000 instrument (Biacore AB, Uppsala, Sweden). Prior to immobilization, sTF E219C was biotinylated at its free cysteine by reacting the protein with 2 mM biotin-PEO-iodoacetamide at pH 7.0 for 20 min. Excess reagent was subsequently removed by gelfiltration on a NAP™5 column (Amersham Biosciences AB, Uppsala, Sweden) equilibrated in HBS-P buffer (10 mM HEPES, 150 mM NaCl, 0.005% P20; Biacore AB, Uppsala, Sweden) containing 5 mM CaCl₂. Biotinylated sTF E19C was immobilized at a density of 2.2 fmol/mm² (˜50 RU) in flow cell 2 of a SA sensor chip (Biacore AB, Uppsala, Sweden). Kinetic analysis was performed at a flow rate of 30 μl/min in running buffer (HBS-P buffer containing 5 mM CaCl₂) using the untreated flow cell 1 for automatic in-line reference subtraction. Serial dilutions of protein from 100 nM to approx. 5 nM were analyzed. Following 3 min equilibration of the flow cells in running buffer, 90 μl protein sample was injected using the KINJECT command. The dissociation phase lasted 9 min and regeneration was performed with a 3-min pulse of 20 mM EDTA in HBS-P buffer. […]

[2] = biological target: T2, FVIIa 407C-PEG20k-FVIIa 407C (human, UniProt P08709 61-212; P08709 213-466, N-glycosylated Asn322; Cys407 of the two protomers cross-linked through maleimide-PEG20k-maleimide; 10 gamma-carboxylated glutamic acid (GLA) residues; O-glycosylated Ser52 and Ser60; N-glycosylated …); test: SPR (Biacore 3000), biotinylated sTF E219C on SA chip, FVIIa dimer as analyte, 5 mM CaCl2, 1:1 Langmuir fit
T2 construct: range 1-152;range 153-406
T2 sequence (light): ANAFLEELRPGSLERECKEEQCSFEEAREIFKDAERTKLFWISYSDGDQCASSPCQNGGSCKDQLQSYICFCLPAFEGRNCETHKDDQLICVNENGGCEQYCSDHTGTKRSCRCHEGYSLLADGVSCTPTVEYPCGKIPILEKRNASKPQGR
T2 sequence (heavy): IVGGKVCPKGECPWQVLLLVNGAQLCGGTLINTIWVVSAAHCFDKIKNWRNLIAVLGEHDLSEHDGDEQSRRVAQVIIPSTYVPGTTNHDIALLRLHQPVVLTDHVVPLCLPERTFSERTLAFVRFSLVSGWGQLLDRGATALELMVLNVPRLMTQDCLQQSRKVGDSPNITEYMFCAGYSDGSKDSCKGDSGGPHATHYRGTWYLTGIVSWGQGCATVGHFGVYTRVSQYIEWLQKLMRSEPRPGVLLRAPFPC
Procedure: (§2) Surface plasmon resonance (SPR) analysis of the binding of FVIIa 407C, FVIIa 407C-PEG3.4 k-FVIIa 407C, and FVIIa 407C-PEG20k-FVIIa 407C to immobilized soluble tissue factor—Binding of FVIIa 407C and PEGylated variants to immobilized soluble tissue factor was analyzed by surface plasmon resonance analysis on a Biacore 3000 instrument (Biacore AB, Uppsala, Sweden). Prior to immobilization, sTF E219C was biotinylated at its free cysteine by reacting the protein with 2 mM biotin-PEO-iodoacetamide at pH 7.0 for 20 min. Excess reagent was subsequently removed by gelfiltration on a NAP™5 column (Amersham Biosciences AB, Uppsala, Sweden) equilibrated in HBS-P buffer (10 mM HEPES, 150 mM NaCl, 0.005% P20; Biacore AB, Uppsala, Sweden) containing 5 mM CaCl₂. Biotinylated sTF E19C was immobilized at a density of 2.2 fmol/mm² (˜50 RU) in flow cell 2 of a SA sensor chip (Biacore AB, Uppsala, Sweden). Kinetic analysis was performed at a flow rate of 30 μl/min in running buffer (HBS-P buffer containing 5 mM CaCl₂) using the untreated flow cell 1 for automatic in-line reference subtraction. Serial dilutions of protein from 100 nM to approx. 5 nM were analyzed. Following 3 min equilibration of the flow cells in running buffer, 90 μl protein sample was injected using the KINJECT command. The dissociation phase lasted 9 min and regeneration was performed with a 3-min pulse of 20 mM EDTA in HBS-P buffer. SPR data were fitted to a 1:1 Langmuir binding model using BIAevaluation 4.1 software (Biacore AB, Uppsala, Sweden).

[3] = biological target: T3, FVIIa 407C-PEG3.4k-FVIIa 407C (human, UniProt P08709 61-212; P08709 213-466, N-glycosylated Asn322; Cys407 of the two protomers cross-linked through maleimide-PEG3.4k-maleimide; 10 gamma-carboxylated glutamic acid (GLA) residues; O-glycosylated Ser52 and Ser60; N-glycosylated …); test: as above
T3 construct: range 1-152;range 153-406
T3 sequence (light): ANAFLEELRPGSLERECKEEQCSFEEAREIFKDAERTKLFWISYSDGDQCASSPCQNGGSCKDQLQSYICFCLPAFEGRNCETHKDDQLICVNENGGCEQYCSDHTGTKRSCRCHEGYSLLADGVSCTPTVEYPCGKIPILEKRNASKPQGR
T3 sequence (heavy): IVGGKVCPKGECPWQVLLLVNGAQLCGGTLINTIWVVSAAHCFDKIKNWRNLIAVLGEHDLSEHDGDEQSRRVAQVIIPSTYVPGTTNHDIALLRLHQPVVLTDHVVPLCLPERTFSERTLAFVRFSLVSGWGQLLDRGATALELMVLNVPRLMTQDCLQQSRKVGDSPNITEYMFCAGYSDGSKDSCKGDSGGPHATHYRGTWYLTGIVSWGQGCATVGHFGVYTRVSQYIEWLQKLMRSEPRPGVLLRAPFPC
Procedure: as §2

[4] = biological target: T2, FVIIa 407C-PEG20k-FVIIa 407C; test: SPR (Biacore 3000), biotinylated sTF E219C on SA chip, FVIIa dimer as analyte; KD calculated from kon and koff
Procedure: as §1

[5] = biological target: T3, FVIIa 407C-PEG3.4k-FVIIa 407C; test: as above
Procedure: as §1

[6] = biological target: T1, FVIIa 407C; test: SPR (Biacore 3000), biotinylated sTF E219C on SA chip, FVIIa as analyte, 5 mM CaCl2, 1:1 Langmuir fit
Procedure: as §1

B1: sTF (1-219) Glu219→Cys (E219C), biotinylated (receptor)
chain: SGTTNTVAAYNLTWKSTNFKTILEWEPKPVNQVYTVQISTKSGDWKSKCFYTTDTECDLTDEIVKDVKQTYLARVFSYPAGNVESTGSAGEPLYENSPEFTPYLETNLGQPTIQSFEQVGTKVNVTVEDERTLVRRNNTFLSLRDVFGKDLIYTLYYWKSSSSGKKTAKTNTNEFLIDVDKGENYCFSVQAVIPSRTVNRKSTDSPVECMGQEKGEFRC
modifications: Cys219 alkylated with biotin-PEO-iodoacetamide (biotinylated at its free cysteine) ; chain 1 pos 219: Cys alkylated with biotin-PEO-iodoacetamide (biotinylated at its free cysteine), written C. It was captured through this biotin on a streptavidin (SA) sensor chip.
notes: Immobilized on a streptavidin (SA) sensor chip at 2.2 fmol/mm^2 (~50 RU); also called sTF E219C; biotinylated sTF E19C
With B1 the Kd [1] was 5.5 nM, the koff [2] was 0.00016 s⁻¹ and the kon [2] was 310000 M⁻¹ s⁻¹. The koff [3] was 0.00015 s⁻¹, the kon [3] was 350000 M⁻¹ s⁻¹ and the Kd [4] was 0.5 nM. It also gave a Kd [5] of 0.4 nM, a koff [6] of 0.0015 s⁻¹ and a kon [6] of 280000 M⁻¹ s⁻¹.
